Measurements published in patent US20160083712.

Assays:
[1] = system: CSN6, soluble MPN domain construct of Example 2
Nedd8-AMC = Nedd8-AMC (UniProt Q15843)
Chain of Nedd8-AMC (Q15843 whole entry, looked up): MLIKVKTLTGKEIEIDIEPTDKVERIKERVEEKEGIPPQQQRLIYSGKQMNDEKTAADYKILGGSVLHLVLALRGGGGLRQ

Chain of CSN6, soluble MPN domain construct of Example 2 (chain, as listed by the source): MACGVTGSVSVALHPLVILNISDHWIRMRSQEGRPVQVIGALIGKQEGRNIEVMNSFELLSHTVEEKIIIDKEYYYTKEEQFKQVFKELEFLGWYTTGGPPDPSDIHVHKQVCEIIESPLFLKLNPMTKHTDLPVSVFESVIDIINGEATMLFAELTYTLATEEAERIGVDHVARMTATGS
Chain of CSN51-257 R106T (human CSN5 residues 1-257 with Arg106 substituted by threonine) (chain, as listed by the source R106T): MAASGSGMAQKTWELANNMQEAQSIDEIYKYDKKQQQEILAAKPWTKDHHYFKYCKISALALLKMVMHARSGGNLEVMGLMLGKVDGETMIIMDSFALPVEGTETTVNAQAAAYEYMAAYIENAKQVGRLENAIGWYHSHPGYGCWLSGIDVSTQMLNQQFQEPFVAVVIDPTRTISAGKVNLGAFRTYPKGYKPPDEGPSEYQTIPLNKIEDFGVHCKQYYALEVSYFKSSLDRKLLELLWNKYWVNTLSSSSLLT
Chain of CSN5 R106T, activatory mutant form, construct of Example 2 (chain, as listed by the source R106T): as above
Chain of GST-CSN51-257 R106T (GST-tagged human CSN5 residues 1-257 with Arg106 substituted by threonine) (chain, as listed by the source R106T): as above
Chain of CSN51-257 wild type (human CSN5 residues 1-257, GST tag cleaved off) (chain, as listed by the source): as the sequence (chain, as listed by the source R106T) above, with T106R counted along it
Chain of GST-CSN51-257 wild type (GST-tagged human CSN5 residues 1-257) (chain, as listed by the source): as the sequence (chain, as listed by the source R106T) above, with T106R counted along it
Chain of CSN5 WT, soluble MPN domain construct of Example 2 (chain, as listed by the source): as the sequence (chain, as listed by the source R106T) above, with T106R counted along it

| Substance | CSN5 isopeptidase activity (substrates LRGG-AMC, Nedd8-AMC, Nedd8-cullin 1) [1] | isopeptidase activity (hydrolysis of LRGG-AMC, fluorescence) (LRGG-AMC) | isopeptidase activity (hydrolysis of Nedd8-AMC, fluorescence) (Nedd8-AMC) |
| --- | --- | --- | --- |
| CSN5 R106T, activatory mutant form, construct of Example 2 | this effect is consistently more marked in the context of the activatory mutant form of CSN5, CSN5 R106T than the WT form | – | – |
| GST-CSN51-257 R106T (GST-tagged human CSN5 residues 1-257 with Arg106 substituted by threonine) | – | the R106T substitution is sufficient to restore constitutive isopeptidase activity against two isopeptidase substrates, LRGG-AMC and Nedd8-AMC | – |
| CSN51-257 R106T (human CSN5 residues 1-257 with Arg106 substituted by threonine) | – | – | the R106T substitution is sufficient to restore constitutive isopeptidase activity against two isopeptidase substrates, LRGG-AMC and Nedd8-AMC |
| CSN5 WT, soluble MPN domain construct of Example 2 | CSN6 is able to significantly enhance CSN5 isopeptidase activity | – | – |
| CSN51-257 wild type (human CSN5 residues 1-257, GST tag cleaved off) | – | – | the CSN51-257 WT form is void of isopeptidase activity |
| GST-CSN51-257 wild type (GST-tagged human CSN5 residues 1-257) | – | the CSN51-257 WT form is void of isopeptidase activity | – |
